# According to doi:10.1101/2020.11.11.377994v1:
# B1: DPCK (DPCK-WT), putative dephospho-CoA kinase (Aquifex aeolicus VF5) (protein)
# chain: MKRIGLTGNIGCGKSTVAQMFRELGAYVLDADKLIHSFYRKGHPVYEEVVKTFGKGILDEEGNIDRKKLADIVFKDEEKLRKLEEITHRALYKEIEKITKNLSEDTLFILEASLLVEKGTYKNYDKLIVVYAPYEVCKERAIKRGMSEEDFERRWKKQMPIEEKVKYADYVIDNSGSIEETYKQVKKVYEELTRDP
# Columns and labels:
# [1] = substrate: Nc1ncnc2c1ncn2[C@@H]1O[C@H](COP(=O)(O)OP(=O)(O)OP(=O)(O)O)[C@@H](O)[C@H]1O; assay: purified protein; details: 200 uM dCoA, 10 mM MgCl2, pH 7.4, 37 °C, phosphotransferase
# [2] = substrate: CC(C)(COP(=O)(O)OP(=O)(O)OC[C@H]1O[C@@H](n2cnc3c(N)ncnc32)[C@H](O)[C@@H]1O)[C@@H](O)C(=O)NCCC(=O)NCCS; assay: purified protein; details: 200 uM ATP, 10 mM MgCl2, pH 7.4, 37 °C
protein,measurement,setting,value
B1,Km,[1],12.7 ± 0.3 µM
same,kcat,[1],0.73 ± 0.025 s⁻¹
same,Km,[2],24.3 ± 1.7 µM
same,kcat,[2],0.817 ± 0.0867 s⁻¹
